Assay results: patent CN115703833A (BOAOXIN BIOTECHNOLOGY NANJING CO LTD, dated 2023)

What was measured:
[1] = molecular target: T1, 重组人CD47-his蛋白 (ACRO biosystems, cat#CD7-H5227, MW 15.6 kDa) (human, UniProt Q08722 19-139, biotin-labelled in the ELISAs (position not given); unlabelled in Biacore); test: Biacore T200 SPR; antibody captured by goat anti-mouse IgG on a CM5 chip, CD47-his as analyte
T1 construct: also called 人CD47蛋白; 人CD47-生物素; not shown: his tag

[2] = molecular target: T2, 人CD47 (表面过表达人CD47的293F细胞) (human, UniProt Q08722 19-323); test: flow cytometry on 293F cells overexpressing human CD47
T2 construct: whole, on cells; also called 表面过表达人CD47的稳定细胞系293F
T2 sequence (Q08722 19-323): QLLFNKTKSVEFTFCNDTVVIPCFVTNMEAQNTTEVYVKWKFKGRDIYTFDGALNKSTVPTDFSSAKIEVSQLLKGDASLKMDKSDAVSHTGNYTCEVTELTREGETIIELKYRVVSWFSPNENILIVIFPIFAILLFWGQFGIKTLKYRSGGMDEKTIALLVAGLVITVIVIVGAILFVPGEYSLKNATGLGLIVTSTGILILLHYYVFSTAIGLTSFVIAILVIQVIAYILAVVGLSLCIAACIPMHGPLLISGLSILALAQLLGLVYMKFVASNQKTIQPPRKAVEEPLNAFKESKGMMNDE

T1 sequence (Q08722 19-139 limits assumed): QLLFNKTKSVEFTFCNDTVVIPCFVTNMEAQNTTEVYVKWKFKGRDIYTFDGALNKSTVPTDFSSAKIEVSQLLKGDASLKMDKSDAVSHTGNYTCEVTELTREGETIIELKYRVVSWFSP

binding result [1]: binds
binding result [2]: binds
B1: 本发明的单克隆抗体1D5 (小鼠抗CD47单克隆抗体) (antibody, V domains shown)
VH: EVQLQQSGAELVRSGASVKLSCTASGFNIKDYYMSWVRQRPEQGLEWIGWIDPKNGDTAYDPKFQGKATMTADTSSNTAYLQFSSLTSEDTADYYCNAGGRGGFAYWGQGTLVTVSA
VL: DVLMTQTPLSLPVSLGDQASISCRSNQSIVHSNGYTYLEWYLQKPGQSPKLLIYKVSNRFSGVPDRFSGSGSGTDFTLRISRVEAEDLGVYYCFQGSHVPRTFGGGTKLEIK
notes: Tested as a purified mouse monoclonal antibody from a hybridoma
